Non-standard residues stand in square brackets, D forms with d. Phe(4-N3) = [N-]=[N+]=Nc1ccc(C[C@H](N)C(=O)O)cc1
What was measured:
Assay type in all cases: physicochemical
[1] = Static and dynamic light scattering (SLS/DLS) of block co-polypeptides; conditions: Table 5; for Nagg / Rg(nm) / Rh (nm): 10 μM in PBS, 15 °C; for ρ: shape factor Rg/Rh
Method: Key parameters of interest are the hydrophilicity of the corona-forming block, the hydrophilicity of the core block, the overall length of the co-polypeptide and the ratio of the two blocks. Parameters of evaluation are the size, morphology, stability, and thermoresponsive behavior. All measurements were made in 140 mM NaCl, 10 mM phosphate buffer, 3 mM KCl, pH 7.4 unless otherwise specified. Size was evaluated by the hydrodynamic radios (Rh) and radius of gyration (Rg) by dynamic light scattering (DLS) and static light scattering (SLS) respectively. Rg and Rh can be combined to yield the shape factor ρ=Rg/Rh, which provides a rough indication of the morphology of the scatterer. […] For an elongated scatterer, the shape factor depends upon the aspect ratio. A combination of temperature dependent turbidity and DLS was utilized to determine the phase behavior of the block co-polypeptides. Cryogenic transmission electron microscopy (Cryo-TEM) was utilized to evaluate the morphology and provide crucial insight into the hydration of the core/corona chains. Stability of the assembled nanostructure was determined by a shift in the I1/I3 fluorescent bands of pyrene as described previously.
Static and dynamic light scattering measurements (SLS/DLS) were performed using an ALV/CGS-3 goniometer system (Langen, Germany). Samples for the ALV/CGS-3 goniometer system were prepared at a concentration of 10 μM in PBS and filtered through 0.45 μm Millex-GV filters into a 10 mm disposable borosilicate glass tube (Fischer). Simultaneous SLS and DLS measurements were obtained at 15° C. of the ELP for angles between 30°-150° at 5° increments, with each angle consisting of 3 runs for 15 s. SLS experiments were only conducted for self-assembling block co-polypeptides, since the molecular weight of a single block co-polypeptide chain is already known, and the Rg of a single chain is likely near or below the detection limit of the SLS instrument. The differential refractive index (dn/dc) was determined by measuring the refractive index at different concentrations using an Abbemat 500 refractometer (Anton Paar, Graz, Austria). DLS data were analyzed by fitting the autocorrelation function with a cumulant fit, using the built-in ALV software. Hydrodynamic radius (Rh) was plotted against angle and extrapolated to zero. SLS data were analyzed by partial Zimm plots using ALVSTAT software in order to determine the Rg and molecular weight (MW).

[2] = Cryo-TEM micelle core size, inter-core spacing and aspect ratio; conditions: Table 6, mean ± standard deviation; for Spacing (nm): inter-core spacing
Method: Using the data from FIG. 18, particularly the longest straight line of an individual particle and a corresponding perpendicular measurement were made to describe the aspect ratio of particles observed.
Cryo-TEM experiments were performed at Duke University's Shared Materials Instrumentation Facility (Durham, N.C.). Lacey holey carbon grids (Ted Pella, Redding, Calif.) were glow discharged in a PELCO EasiGlow Cleaning System (Ted Pella, Redding, Calif.). A 3 μL drop (10 μM RLPn-ELP80) was deposited onto the grid, blotted for 3 s with an offset of −3 mm, and vitrified in liquid ethane using the Vitrobot Mark III (FEI, Eindhoven, Netherlands). Prior to vitrification, the sample chamber was maintained at 15° C. and 100% relative humidity to prevent sample evaporation. Grids were transferred to a Gatan 626 cryoholder (Gatan, Pleasanton, Calif.) and imaged with a FEI Tecnai G2 Twin TEM (FEI, Eindhoven, Netherlands), operating at 80 keV. Feature sizes and spacing distances were measured in ImageJ by manual measurement of at least 25 particles.

[3] = DLS of native and crosslinked pAzF diblock constructs in PBS and GuHCl
From the text: We wanted to thoroughly investigate the effects of pAzF-introduction as well as nanoparticle crosslinking on nanoparticle self-assembly. For this, we started by characterizing solely our five different ELP/RLP diblock architectures without any C-terminal functionalization. After expression and purification of the diblock constructs using ITC, the pAzF-containing constructs were crosslinked in solution by exposure to UV irradiation and characterized using dynamic light scattering (DLS). […] Generally, both processes seem to have increased the measured radii with this effect being more pronounced for the worm-forming constructs.
Apart from changes in nanoparticle morphology we were particularly interested in the effect pAzF-crosslinking had on their stability. […] GuHCl is a well-known denaturing agent that disrupts any inter- and intramolecular electrostatic forces and completely breaks down the quaternary, tertiary and secondary structure of most known proteins. Covalent bonds—such as the ones formed by pAzF-crosslinking—however remain unaffected by GuHCl, thus, the addition of this denaturing agent was expected to give us insights on the stability of our crosslinked nanoparticles. […] All native samples on the other hand resorted to complete unimerization upon exposure to GuHCl. As the Rh values for the crosslinked particles in GuHCl were generally larger than in PBS, the DLS data furthermore indicates a swelling behavior in the presence of the denaturing agent. This can most probably be attributed to the RLP core which is assumed to be completely collapsed in PBS but will however try to reach an elongated, random-coil morphology in the presence of GuHCl.
The first step of the characterization process was to produce crosslinked particles for the functionalized diblock constructs and to analyze whether the attachment of the ligands had caused any significant changes in particle size. […] Whatever the reason was, it had no effect on the crosslinking process as the particles still remained stable after GuHCl exposure.
Dynamic light scattering of cross-linkable protein nanoparticles was performed. […] However, these crosslinked particles remain assembled, actually growing slightly in size due to chain swelling of the core and corona in this new buffer. These novel scaffolds support various targeting domains and assemble into nearly identically sized nanoparticles between […] in hydrodynamic radius.

B1: RLP80-ELPV80: RLP-ELP block co-polypeptide with Val guest residue in the corona (protein)
chain: QYPSDGRGQYPSDGRGQYPSDGRGQYPSDGRGQYPSDGRGQYPSDGRGQYPSDGRGQYPSDGRGQYPSDGRGQYPSDGRGQYPSDGRGQYPSDGRGQYPSDGRGQYPSDGRGQYPSDGRGQYPSDGRGQYPSDGRGQYPSDGRGQYPSDGRGQYPSDGRGQYPSDGRGQYPSDGRGQYPSDGRGQYPSDGRGQYPSDGRGQYPSDGRGQYPSDGRGQYPSDGRGQYPSDGRGQYPSDGRGQYPSDGRGQYPSDGRGQYPSDGRGQYPSDGRGQYPSDGRGQYPSDGRGQYPSDGRGQYPSDGRGQYPSDGRGQYPSDGRGQYPSDGRGQYPSDGRGQYPSDGRGQYPSDGRGQYPSDGRGQYPSDGRGQYPSDGRGQYPSDGRGQYPSDGRGQYPSDGRGQYPSDGRGQYPSDGRGQYPSDGRGQYPSDGRGQYPSDGRGQYPSDGRGQYPSDGRGQYPSDGRGQYPSDGRGQYPSDGRGQYPSDGRGQYPSDGRGQYPSDGRGQYPSDGRGQYPSDGRGQYPSDGRGQYPSDGRGQYPSDGRGQYPSDGRGQYPSDGRGQYPSDGRGQYPSDGRGQYPSDGRGQYPSDGRGQYPSDGRGQYPSDGRGQYPSDGRGQYPSDGRGQYPSDGRGQYPSDGRGGVGVPGVGVPGVGVPGVGVPGVGVPGVGVPGVGVPGVGVPGVGVPGVGVPGVGVPGVGVPGVGVPGVGVPGVGVPGVGVPGVGVPGVGVPGVGVPGVGVPGVGVPGVGVPGVGVPGVGVPGVGVPGVGVPGVGVPGVGVPGVGVPGVGVPGVGVPGVGVPGVGVPGVGVPGVGVPGVGVPGVGVPGVGVPGVGVPGVGVPGVGVPGVGVPGVGVPGVGVPGVGVPGVGVPGVGVPGVGVPGVGVPGVGVPGVGVPGVGVPGVGVPGVGVPGVGVPGVGVPGVGVPGVGVPGVGVPGVGVPGVGVPGVGVPGVGVPGVGVPGVGVPGVGVPGVGVPGVGVPGVGVPGVGVPGVGVPGVGVPGVGVPGVGVPGVGVPGVGVPGVGVPGVGVPGVGVPGVGVP
[1]
  Nagg: 693
  Rg(nm): 94.4 nm
  Rh (nm): 71.0 nm
  ρ: 1.31
[2]
  Spacing (nm): 29.6 ± 3.8 nm
  Core radius (nm): 14.2 ± 2.4 nm

B2: UAA2-40: pAzF-containing sphere-forming diblock construct, two pAzF residues per polypeptide chain (protein)
chain: QYPSDGRGQYPSDGRGQYPSDGRGQYPSDGRGQYPSDGRGQYPSDGRGQYPSDGRGQYPSDGRGQYPSDGRGQYPSDGRGQYPSDGRGQYPSDGRGQYPSDGRGQYPSDGRGQYPSDGRGQYPSDGRGQYPSDGRGQYPSDGRGQYPSDGRGQYPSDGRG[Phe(4-N3)]QYPSDGRGQYPSDGRGQYPSDGRGQYPSDGRGQYPSDGRGQYPSDGRGQYPSDGRGQYPSDGRGQYPSDGRGQYPSDGRGQYPSDGRGQYPSDGRGQYPSDGRGQYPSDGRGQYPSDGRGQYPSDGRGQYPSDGRGQYPSDGRGQYPSDGRGQYPSDGRG[Phe(4-N3)]
[3]; 15 μm in 7.2M GuHCl, crosslinked
  RH (nm): 54.1 ± 2.0 nm
[3]; 15 μm in 7.2M GuHCl, native (not crosslinked)
  RH (nm): 7.0 ± 1.1 nm
[3]; 15 μm in PBS, crosslinked
  RH (nm): 29.8 ± 0.3 nm
[3]; 15 μm in PBS, native (not crosslinked)
  RH (nm): 28.1 ± 0.2 nm

B3: RLP40-ELPS80: RLP-ELP block co-polypeptide with Ser guest residue in the corona (protein)
chain: QYPSDGRGQYPSDGRGQYPSDGRGQYPSDGRGQYPSDGRGQYPSDGRGQYPSDGRGQYPSDGRGQYPSDGRGQYPSDGRGQYPSDGRGQYPSDGRGQYPSDGRGQYPSDGRGQYPSDGRGQYPSDGRGQYPSDGRGQYPSDGRGQYPSDGRGQYPSDGRGQYPSDGRGQYPSDGRGQYPSDGRGQYPSDGRGQYPSDGRGQYPSDGRGQYPSDGRGQYPSDGRGQYPSDGRGQYPSDGRGQYPSDGRGQYPSDGRGQYPSDGRGQYPSDGRGQYPSDGRGQYPSDGRGQYPSDGRGQYPSDGRGQYPSDGRGQYPSDGRGGSGVPGSGVPGSGVPGSGVPGSGVPGSGVPGSGVPGSGVPGSGVPGSGVPGSGVPGSGVPGSGVPGSGVPGSGVPGSGVPGSGVPGSGVPGSGVPGSGVPGSGVPGSGVPGSGVPGSGVPGSGVPGSGVPGSGVPGSGVPGSGVPGSGVPGSGVPGSGVPGSGVPGSGVPGSGVPGSGVPGSGVPGSGVPGSGVPGSGVPGSGVPGSGVPGSGVPGSGVPGSGVPGSGVPGSGVPGSGVPGSGVPGSGVPGSGVPGSGVPGSGVPGSGVPGSGVPGSGVPGSGVPGSGVPGSGVPGSGVPGSGVPGSGVPGSGVPGSGVPGSGVPGSGVPGSGVPGSGVPGSGVPGSGVPGSGVPGSGVPGSGVPGSGVPGSGVPGSGVPGSGVPGSGVPGSGVPGSGVP
[1]
  Nagg: 80
  Rg(nm): 27.2 nm
  Rh (nm): 33.0 nm
  ρ: 0.82
[2]
  Spacing (nm): 20.0 ± 2.6 nm
  Core radius (nm): 13.1 ± 2.7 nm

B4: RLP80-ELPS80: RLP-ELP block co-polypeptide with Ser guest residue in the corona (protein)
chain: QYPSDGRGQYPSDGRGQYPSDGRGQYPSDGRGQYPSDGRGQYPSDGRGQYPSDGRGQYPSDGRGQYPSDGRGQYPSDGRGQYPSDGRGQYPSDGRGQYPSDGRGQYPSDGRGQYPSDGRGQYPSDGRGQYPSDGRGQYPSDGRGQYPSDGRGQYPSDGRGQYPSDGRGQYPSDGRGQYPSDGRGQYPSDGRGQYPSDGRGQYPSDGRGQYPSDGRGQYPSDGRGQYPSDGRGQYPSDGRGQYPSDGRGQYPSDGRGQYPSDGRGQYPSDGRGQYPSDGRGQYPSDGRGQYPSDGRGQYPSDGRGQYPSDGRGQYPSDGRGQYPSDGRGQYPSDGRGQYPSDGRGQYPSDGRGQYPSDGRGQYPSDGRGQYPSDGRGQYPSDGRGQYPSDGRGQYPSDGRGQYPSDGRGQYPSDGRGQYPSDGRGQYPSDGRGQYPSDGRGQYPSDGRGQYPSDGRGQYPSDGRGQYPSDGRGQYPSDGRGQYPSDGRGQYPSDGRGQYPSDGRGQYPSDGRGQYPSDGRGQYPSDGRGQYPSDGRGQYPSDGRGQYPSDGRGQYPSDGRGQYPSDGRGQYPSDGRGQYPSDGRGQYPSDGRGQYPSDGRGQYPSDGRGQYPSDGRGQYPSDGRGQYPSDGRGQYPSDGRGGSGVPGSGVPGSGVPGSGVPGSGVPGSGVPGSGVPGSGVPGSGVPGSGVPGSGVPGSGVPGSGVPGSGVPGSGVPGSGVPGSGVPGSGVPGSGVPGSGVPGSGVPGSGVPGSGVPGSGVPGSGVPGSGVPGSGVPGSGVPGSGVPGSGVPGSGVPGSGVPGSGVPGSGVPGSGVPGSGVPGSGVPGSGVPGSGVPGSGVPGSGVPGSGVPGSGVPGSGVPGSGVPGSGVPGSGVPGSGVPGSGVPGSGVPGSGVPGSGVPGSGVPGSGVPGSGVPGSGVPGSGVPGSGVPGSGVPGSGVPGSGVPGSGVPGSGVPGSGVPGSGVPGSGVPGSGVPGSGVPGSGVPGSGVPGSGVPGSGVPGSGVPGSGVPGSGVPGSGVPGSGVPGSGVPGSGVPGSGVP
[1]
  Nagg: 392
  Rg(nm): 36.0 nm
  Rh (nm): 49.4 nm
  ρ: 0.73
[2]
  Spacing (nm): 27.9 ± 4.0 nm
  Core radius (nm): 14.6 ± 2.2 nm
